From patent US20020142457A1, “Cell having the potentiality of differentiation into cardiomyocytes” (priority 1999, published 2002)
Ends that are not written are not given here.

Key:
[1] = system: Nkx2.5/Csx and GATA4 co-forced expressing bone marrow cells (BMSC-Nkx2.5-GATA4); experiment: Quantitative PCR of genes expressed in myotubes from BMSC-Nkx2.5-GATA4; format: cell-based, mouse; settings: BMSC-Nkx2.5-GATA4, 5-aza-C 3 μM, cytokine 10 ng/ml
From the text: From the myotubes thus obtained, RNAs were collected and genes expressed in the myotubes were subjected to quantitative PCR analysis using the synthetic oligonucleotides represented by SEQ ID NOS:71 to 78.

[2] = system: bone marrow cell (BMSC-MesP1); experiment: Differentiation of BMSC-MesP1 with cytokines, phase contrast microscope; format: cell-based, mouse; settings: BMSC-MesP1, 5-aza-C 3 μM; cytokine 10 ng/ml; four weeks
Protocol: A mouse bone marrow-derived pluripotent stem cell (BMSC-MesP1) having the potential to differentiate into cardiomyocytes in which the MesP1 gene was forced-expressed was obtained using a retrovirus vector in the same manner as in Example 6, and then the differentiation was induced to examine efficiency of differentiation into cardiomyocytes.
The bone marrow cell (BMSC-MesP1) having the potential to differentiate into cardiomyocytes in which MesP1 was forced expressed was plated into a 60-mm culture dish in a density of 2×10^4 cells/ml and cultured at 33° C. in a 5% CO2-incubator. On the next day, 5-aza-C was added to the culture medium to give a final concentration of 3 μM, followed by culturing under five different conditions, namely (i) addition of FGF-8 to give a final concentration of 10 ng/ml (culture dish N), (ii) addition of ET-1 to give a final concentration of 10 ng/ml (culture dish P), (iii) addition of Midkine to give a final concentration of 10 ng/ml (culture dish Q), (iv) addition of BMP4 to give a final concentration of 10 ng/ml (culture dish R), and (v) no addition (culture dish S).
On the next day, the medium was exchanged with a fresh medium in order to eliminate 5-aza-C from the medium, and then the culturing was continued by adding FGF-8 to the culture dish N to give a final concentration of 10 ng/ml, ET-1 to the culture dish P to give a final concentration of 10 ng/ml, Midkine to the culture dish Q to give a final concentration of 10 ng/ml and BMP4 to the culture dish R to give a final concentration of 10 ng/ml. Two days and 4 days thereafter, the medium exchange and addition of FGF-8, ET-1, Midkine or BMP4 were carried out similarly.
Four weeks after the addition of 5-aza-C, morphology of the cells was observed under a phase contrast microscope. As a result, the number of myotube-like cells was not changed greatly by the forced expression of MesP1. In addition, about 50% of the cells became myotube-like cells in the culture dish to which FGF-8, ET-1, Midkine or BMP4 had been added.

## ET-1: endothelin 1, cytokine (CSCSSLMDKECVYFCHLDIIW; ends and bridges not checked; cysteine pairing not given here; UniProt P05305 53-73, looked up)
[1]
  expression of cTnI and ANP promoted by forced expression of Nkx2.5/Csx and GATA4: did not further promote
[2]
  cells became myotube-like cells: about 50%

B1: midkine: cytokine, amino acid sequence SEQ ID NO:68 (protein, listed as Homo sapiens)
chain: MQHRGFLLLTLLALLALTSAVAKKKDKVKKGGPGSECAEWAWGPCTPSSKDCGVGFREGTCGAQTQRIRCRVPCNWKKEFGADCKYKFENWGACDGGTGTKVRQGTLKKARYNAQCQETIRVTKPCTPKTKAKAKAKKGKGKD
modifications: CDS (1)..(432)
[1]
  expression of cTnI and ANP promoted by forced expression of Nkx2.5/Csx and GATA4: did not further promote
[2]
  cells became myotube-like cells: about 50%

B2: FGF-8: fibroblast growth factor 8, cytokine (protein, UniProt P55075 23-233, looked up)
Fibroblast growth factor 8: QEGPGRGPALGRELASLFRAGREPQGVSQQHVREQSLVTDQLSRRLIRTYQLYSRTSGKHVQVLANKRINAMAEDGDPFAKLIVETDTFGSRVRVRGAETGLYICMNKKGKLIAKSNGKGKDCVFTEIVLENNYTALQNAKYEGWYMAFTRKGRPRKGSKTRQHQREVHFMKRLPRGHHTTEQSLRFEFLNYPPFTRSLRGSQRTWAPEPR
[1]
  expression of cTnI and ANP promoted by forced expression of Nkx2.5/Csx and GATA4: did not further promote
[2]
  cells became myotube-like cells: about 50%

B3: BMP4: bone morphogenic protein 4, cytokine (protein, UniProt P12644 293-408, looked up)
Bone morphogenetic protein 4: SPKHHSQRARKKNKNCRRHSLYVDFSDVGWNDWIVAPPGYQAFYCHGDCPFPLADHLNSTNHAIVQTLVNSVNSSIPKACCVPTELSAISMLYLDEYDKVVLKNYQEMVVEGCGCR
[1]
  expression of cTnI and ANP promoted by forced expression of Nkx2.5/Csx and GATA4: did not further promote
[2]
  cells became myotube-like cells: about 50%
